Assays:
[1] = biological target: T1, human KDR (VEGFR2) on cells (human, UniProt P35968 20-1356); assay: cell-based or functional assay
[2] = biological target: T1, human KDR (VEGFR2) on cells; assay: cell-based or functional assay; remark: listed apart in the source
[3] = biological target: T1, human KDR (VEGFR2) on cells; assay: cell-based or functional assay; remark: listed apart in the source
[4] = biological target: T1, human KDR (VEGFR2) on cells; assay: FACS on HUVEC, hybridoma supernatant 1:50
Description: HUVECs were seeded at 15,000 cells/well and incubated with 100 μL of sample supernatant (at 1:50 dilution) for one hour at 4° C. The positive control was goat anti-KDR antibody (R&D Systems, Inc.), and negative controls included irrelevant hybridoma supernatants at the same dilution. The cells were then washed and incubated with Cy5-conjugated goat anti-human antibody at 5 μg/mL and 7-Amino-Actinomycin D (7AAD) at 5 μg/mL for 15 minutes at 4° C. Bound KDR was detected using FACS analysis.

[5] = biological target: T2, mouse KDR (Flk-1)/Fc (Cat. #443-KD/CF, R&D Systems) (mouse, UniProt P35918 20-762); assay: ELISA, plate-coated Flk-1/Fc 500 ng/mL, hybridoma supernatant 1:5
T2 construct: Bought reagent; also called mouse VEGFR2; KDR mouse ortholog; Fc part of the bought chimera not given
Description: The cross-reactivity of antibodies in the hybridoma supernatant was tested against KDR mouse ortholog (mouse VEGFR2, or Flk-1) and human VEGFR1 (Flt-1). Cross-reactivity was measured using an ELISA based assay.
After washing and blocking the plates, the antibody-containing supernatants were added (at 1:5 dilution) into the coated wells and incubated for one hour at room temperature. The plates were then incubated with mouse anti-human IgG 2, 3 and 4 and subsequently with goat anti-mouse IgG Fc POD, to detect and measure bound antibodies.

[6] = biological target: T3, soluble KDR (VEGF Receptor 2 D1-7, Cat. #676490, Calbiochem) (human, UniProt P35968 20-764); assay: ELISA, plate-coated soluble KDR 250 ng/mL, hybridoma supernatant 1:5
T3 construct: extracellular domain; Bought reagent; also called soluble human KDR; immobilized soluble KDR
Description: To screen by binding to immobilized soluble KDR, plates were coated with KDR (Calbiochem) at 250 ng/mL overnight at 4° C. After blocking and washing the coated plates, the candidate hybridoma supernatants (at 1:5 dilution) were transferred to the plates and incubated for one hour at room temperature. The plates were then washed and incubated with secondary antibody (at 1:4000 dilution) for one hour at room temperature.

b-KDRIg4-7-myc-his = biological target: T4, b-KDRIg4-7-myc-his (UniProt P35968 328-764, prefix 'b-' not explained; captured on neutravidin-coated plates (presumably biotinylated, site not stated)); assay: ELISA, b-KDRIg4-7-myc-his 1 ug/mL on neutravidin, hybridoma supernatant 1:5
T4 construct: domain: Ig4-7; The text calls it 'a KDR antibody containing the Ig4-7 domain'; it is read as the KDR fragment; Purified on a nickel column; also called Ig4-7 domain of KDR; soluble KDR Ig4-7; not shown: myc-his tag of the pSecTag vector
Description: To screen by binding to the Ig4-7 domain of KDR, plates were first coated with neutravadin (Pierce) at 4 μg/mL and incubated overnight at 4° C. The plates were then blocked and subsequently incubated with b-KDRIg4-7-myc-his at 1 μg/mL for one hour at room temperature. Candidate hybridoma supernatants (at 1:5 dilution) were transferred to the plates and incubated for one hour at room temperature. The plates were then washed and incubated with goat anti-human IgG Fc POD (at 1:4000 dilution) for one hour at room temperature.

T3 sequence (P35968 20-764): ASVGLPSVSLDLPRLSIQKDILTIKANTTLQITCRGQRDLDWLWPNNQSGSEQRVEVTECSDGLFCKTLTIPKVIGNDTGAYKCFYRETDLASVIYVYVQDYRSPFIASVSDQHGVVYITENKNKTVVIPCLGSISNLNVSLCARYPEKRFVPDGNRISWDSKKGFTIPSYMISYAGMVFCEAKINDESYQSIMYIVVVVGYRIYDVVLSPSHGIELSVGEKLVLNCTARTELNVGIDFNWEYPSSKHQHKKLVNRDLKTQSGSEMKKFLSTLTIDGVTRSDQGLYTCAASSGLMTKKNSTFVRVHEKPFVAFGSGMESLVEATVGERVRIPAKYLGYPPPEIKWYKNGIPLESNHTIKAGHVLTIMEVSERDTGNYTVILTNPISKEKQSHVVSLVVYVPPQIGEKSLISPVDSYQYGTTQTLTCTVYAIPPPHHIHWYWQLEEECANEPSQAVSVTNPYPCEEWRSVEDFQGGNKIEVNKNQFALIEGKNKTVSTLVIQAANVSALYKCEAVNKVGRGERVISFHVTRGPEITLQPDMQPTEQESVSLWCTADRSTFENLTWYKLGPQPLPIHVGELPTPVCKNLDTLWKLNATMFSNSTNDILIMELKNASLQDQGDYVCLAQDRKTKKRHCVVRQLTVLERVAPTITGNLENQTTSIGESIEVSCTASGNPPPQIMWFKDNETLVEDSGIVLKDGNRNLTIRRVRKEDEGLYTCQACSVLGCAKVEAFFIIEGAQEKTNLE
T2 sequence (P35918 20-762): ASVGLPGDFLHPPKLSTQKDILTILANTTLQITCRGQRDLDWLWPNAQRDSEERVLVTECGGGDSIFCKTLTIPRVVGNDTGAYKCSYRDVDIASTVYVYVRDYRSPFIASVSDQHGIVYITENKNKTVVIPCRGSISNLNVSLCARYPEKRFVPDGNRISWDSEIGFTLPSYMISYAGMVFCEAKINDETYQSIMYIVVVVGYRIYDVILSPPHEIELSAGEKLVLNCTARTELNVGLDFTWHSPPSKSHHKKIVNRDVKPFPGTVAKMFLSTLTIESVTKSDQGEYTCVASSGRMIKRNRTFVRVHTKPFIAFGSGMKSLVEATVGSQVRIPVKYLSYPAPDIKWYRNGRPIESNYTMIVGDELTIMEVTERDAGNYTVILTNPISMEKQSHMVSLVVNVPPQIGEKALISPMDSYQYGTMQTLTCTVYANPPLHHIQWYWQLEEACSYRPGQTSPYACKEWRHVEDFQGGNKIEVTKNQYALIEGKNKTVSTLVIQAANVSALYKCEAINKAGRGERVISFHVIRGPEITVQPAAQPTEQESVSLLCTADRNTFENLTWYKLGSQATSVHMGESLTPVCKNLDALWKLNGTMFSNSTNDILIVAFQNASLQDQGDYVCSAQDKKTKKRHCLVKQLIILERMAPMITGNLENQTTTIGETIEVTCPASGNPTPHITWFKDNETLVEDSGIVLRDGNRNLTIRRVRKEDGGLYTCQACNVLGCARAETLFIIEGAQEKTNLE
T4 sequence (P35968 328-764): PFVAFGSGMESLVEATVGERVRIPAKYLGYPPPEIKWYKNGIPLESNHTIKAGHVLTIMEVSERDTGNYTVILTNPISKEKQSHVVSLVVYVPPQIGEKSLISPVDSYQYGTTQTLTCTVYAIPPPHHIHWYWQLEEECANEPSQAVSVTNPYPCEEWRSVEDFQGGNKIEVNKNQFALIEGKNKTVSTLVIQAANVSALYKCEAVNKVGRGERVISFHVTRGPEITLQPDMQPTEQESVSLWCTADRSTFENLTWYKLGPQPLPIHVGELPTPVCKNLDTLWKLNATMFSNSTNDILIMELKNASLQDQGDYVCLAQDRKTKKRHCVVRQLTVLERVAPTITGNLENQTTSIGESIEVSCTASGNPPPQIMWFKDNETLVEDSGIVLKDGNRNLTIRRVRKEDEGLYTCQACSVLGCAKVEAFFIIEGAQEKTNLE
T1 sequence (P35968 20-1356): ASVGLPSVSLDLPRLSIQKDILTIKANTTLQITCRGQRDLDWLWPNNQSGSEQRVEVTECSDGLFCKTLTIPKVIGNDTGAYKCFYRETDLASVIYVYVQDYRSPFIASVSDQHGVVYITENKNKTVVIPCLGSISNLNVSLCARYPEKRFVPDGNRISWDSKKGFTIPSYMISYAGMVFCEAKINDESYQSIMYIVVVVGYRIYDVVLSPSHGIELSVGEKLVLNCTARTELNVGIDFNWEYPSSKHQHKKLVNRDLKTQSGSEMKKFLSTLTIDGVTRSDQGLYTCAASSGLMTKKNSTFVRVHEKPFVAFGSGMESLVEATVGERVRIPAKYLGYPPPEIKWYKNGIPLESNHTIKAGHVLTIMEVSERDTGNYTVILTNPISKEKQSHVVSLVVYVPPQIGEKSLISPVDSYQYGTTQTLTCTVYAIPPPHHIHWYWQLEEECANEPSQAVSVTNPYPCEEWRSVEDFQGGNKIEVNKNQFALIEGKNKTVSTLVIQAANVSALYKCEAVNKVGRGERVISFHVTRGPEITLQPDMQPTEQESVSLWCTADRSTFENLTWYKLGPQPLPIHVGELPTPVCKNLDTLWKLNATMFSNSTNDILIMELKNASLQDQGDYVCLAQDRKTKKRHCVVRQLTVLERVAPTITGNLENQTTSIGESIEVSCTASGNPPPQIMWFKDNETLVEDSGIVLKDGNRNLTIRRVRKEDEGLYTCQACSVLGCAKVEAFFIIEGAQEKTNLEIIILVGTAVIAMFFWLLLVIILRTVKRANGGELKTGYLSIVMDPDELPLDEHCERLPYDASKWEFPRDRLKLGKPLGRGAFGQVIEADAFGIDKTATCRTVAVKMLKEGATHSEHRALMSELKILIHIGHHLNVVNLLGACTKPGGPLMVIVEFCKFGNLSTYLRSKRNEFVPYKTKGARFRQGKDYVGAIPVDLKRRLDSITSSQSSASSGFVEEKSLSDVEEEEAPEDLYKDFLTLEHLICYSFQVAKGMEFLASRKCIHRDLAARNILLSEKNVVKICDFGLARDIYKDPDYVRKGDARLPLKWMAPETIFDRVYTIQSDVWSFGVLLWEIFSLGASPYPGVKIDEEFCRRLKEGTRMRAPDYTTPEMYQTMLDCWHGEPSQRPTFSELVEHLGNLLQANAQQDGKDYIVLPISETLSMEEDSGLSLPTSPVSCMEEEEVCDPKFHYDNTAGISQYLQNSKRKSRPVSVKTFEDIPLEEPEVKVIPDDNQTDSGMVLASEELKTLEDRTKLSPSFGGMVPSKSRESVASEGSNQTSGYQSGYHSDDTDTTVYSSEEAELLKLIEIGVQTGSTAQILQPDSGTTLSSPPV

Binder | % Inhibition of VEGF165-mediated pTyr Activity, Average [1] | % Inhibition of VEGF165-mediated pTyr Activity, n = 1 [1] | % Inhibition of VEGF165-mediated pTyr Activity, n = 2 [1] | % Inhibition of VEGF165-mediated pTyr Activity, n = 3 [1] | % Inhibition of VEGF-E-mediated pTyr Activity [2] | HUVEC survival (n = 1) 1:10 dilution of supernatant (RLU) [3] | HUVEC survival (n = 2) 1:20 dilution of supernatant (RLU) [3] | FACS Geometric Mean [4] | OD (450 nm) [5] | KDR OD(450 nm) [6] | b-KDRIg4-7 OD(450 nm) (b-KDRIg4-7-myc-his)
anti-KDR monoclonal antibody 24B3 (antibody, V domains shown, Fully human mAb from XenoMouse (IgG2 or IgG4 strain); hybridoma supernatant) VH: EVQLVESGGGLVKPGGSLRLSCAASGFTFSTYSMNWVRQAPGKGLEWVSFISGRSSYIYYADSVKGRFTISRDNAKNSLYLQMNSLRAEDTAVYYCSKDDWFEELWGQGTLVTVSS VL: DIQMTQSPSSLSASVGDRVTITCRASQGIRSDLGWYQQKPGKAPKRLIYATSSLQSGVPSRFSGSGSGTEFTLTISSLQPEDFATYYCLQHNRYPWTFGQGTKVEIK | 51% | 69% | 51% | 33% | 40% | 14100 RLU | 2460 RLU | 26 | 0.094 OD450 | 6 OD450 | 0.065 OD450
anti-KDR monoclonal antibody 32G7 (antibody, V domains shown, Fully human mAb from XenoMouse (IgG2 or IgG4 strain); hybridoma supernatant) VH: EVQLVESGGGLVKPGGSLRLSCAASGFTISSYSMNWVRQAPGKGLEWVSFISSRSNYIYYADSVKGRFTISRDNAKNSLYLQMNSLRAEDTAVYYCSKDDWFEELWGQGTLVTVSS VL: DIQMTQSPSSLSASVGDRVTITCRASQDIRNDLGWYQQKPGKAPKRLIYAASSLQSGVPSRFSGSGSGTEFTLTISSLQPEDFATYYCLQHNSFPWTFGQGTKVEIK | 44% | 73% | 47% | 11% | 57% | 24900 RLU | 11900 RLU | 28 | 0.092 OD450 | 1.07 OD450 | 0.068 OD450
anti-KDR monoclonal antibody 33B1 (antibody, V domains shown, Fully human mAb from XenoMouse (IgG2 or IgG4 strain); hybridoma supernatant) VH: EVQLVESGGGLVKPGGSLRLSCAASGFTFSSYTMNWVRQAPGKGLEWVSFIDSRSSYIYYADSVKGRFTISRDNAKNSLYLQMNSLRAEDTAVYYCSKDDWFEELWGQGTLVTVSS VL: DIQMTQSPSSLSASVGDRVTITCRASQGIRNDLGWYQQKPGKAPKRLIYATSSLQSGVPSRFSGSGSGTEFTLTISSLQPEDFATYYCLHHNSFPWTFGQGTKVEIK | 54% | 76% | 56% | 31% | 54% | 19400 RLU | 12500 RLU | 25 | 0.108 OD450 | 1.11 OD450 | 0.058 OD450
anti-KDR monoclonal antibody 33E1 (antibody, V domains shown, Fully human mAb from XenoMouse (IgG2 or IgG4 strain); hybridoma supernatant) VH: QVQLQESGPGLVKPSQTLSLTCTVSGGSISSGDHYWSWIRQHPGKGLEWIGHIYYSGSTDYNPSLKSRVTISVDTSKNHFSLKLNSVTAADTAVYYCARTNSSSWSDWYFDLWGRGTLVTVSS VL: DIVMTQSPDSLAVSLGERATINCKSSQSILYSSNNKNYLAWYQRKPGQPPILLIHWASTRESGVPDRFSGSGSRTDFTLTISSLQAEDVAVYYCQQYFITPWTFGQGTKVEIK | 73% | 88% | 78% | 52% | 46% | 25700 RLU | 2310 RLU | 14 | 0.097 OD450 | 4.55 OD450 | 0.62 OD450
anti-KDR monoclonal antibody 33C3 (antibody, V domains shown, Fully human mAb from XenoMouse (IgG2 or IgG4 strain); hybridoma supernatant) VH: QVQLVESGGGLVKPGESLRLSCAASGFTFSDYYMSWIRQAPGKGLEWVSYISHGGSTIYYADSVKGRFTISRDNAKNSLYLQMNSLRVEDTAVYFCARDDFWSGYYFNWFDPWGQGALVTVSS VL: DIQMTQYPLSLSASVGDRVTITCRASQSISSFLNWYHQKPGKAPKLLIYGTSSLQSGVPSRFSGSGSGTDFTLTISSLQPEDFATYYCQQTYSIPLTFGGGTNVEIK | 71% | 87% | 75% | 50% | 66% | 6540 RLU | 4710 RLU | 20 | 0.076 OD450 | 1.15 OD450 | 3.66 OD450
anti-KDR monoclonal antibody 29H3 (antibody, V domains shown, Fully human mAb from XenoMouse (IgG2 or IgG4 strain); hybridoma supernatant) VH: QVQLVQSGAEVKKPGASVKVSCKASGYTFTSYDINWVRQATGQGLEWMGWMNPNSGKTGYAQKFQGRVTMTRNTSINTAYMELSSLRSEDTAVYYCARGGYSNLGWFDPWGQGTLVTVSS VL: DIQMTQSPSSVSASVGDRVTITCRASQGISSWLVWYHQKPGKAPKLLIYGASSLQSGVPSRFSGSGSGTDFTLTISSLQPEDFATYYCQQANNFPFTFGPGTKVDIK | 76% | 89% | 72% | 66% | 18% | 32700 RLU | 544 RLU | 27 | 0.096 OD450 | 0.83 OD450 | 0.071 OD450
anti-KDR monoclonal antibody 22B8 (antibody, V domains shown, Fully human mAb from XenoMouse (IgG2 or IgG4 strain); hybridoma supernatant) VH: QLQLQESGPGLVKPSETLSLTCTVSGGSISSRYYYWGWVRQPPGKGLEWIGTIYYSGHTYYNPSLKTRVTISVDTSKNQFSLKLISVTAADTAVYYCATQQLVLYYFDFWGQGTLVTVSS VL: EIVLTQSPGTLSLSPGERAALSCRASQSISSSYLAWYQQRPGQAPRLLIYGASSRATGIPDRFNGSGSGTDFTLTISRLEPEDFAVYYCQQFGSSITFGQGTRLEIK | 67% | 82% | 65% | 53% | 61% | 12900 RLU | 3260 RLU | 24 | 0.074 OD450 | 1.18 OD450 | 2.81 OD450
anti-KDR monoclonal antibody 30A1 (antibody, V domains shown, Fully human mAb from XenoMouse (IgG2 or IgG4 strain); hybridoma supernatant) VH: QLQLQESGPGLVKPSETLSLTCTVSGGSISSPNYYWGWIRQPPGKGLEWIGTIYYSGNTFYNPSLKSRVTISVDTSKNQFSLKLSSVTAADTAVYYCATQQLVLYYFDFWGQGTLVTVSS VL: EIVLTQSPGTLSLSPGKRAALSCRASQSISSSYLAWYQQKPGQAPRLLIYGASSRATGIPDRFNGSGSGTDFTLTISRLEPEDFAVYYCQQLGSSITFGQGTRLEIK | 65% | 86% | 59% | 52% | 50% | 14400 RLU | 9730 RLU | 25 | 0.107 OD450 | 0.786 OD450 | 1.21 OD450
anti-KDR monoclonal antibody 27D10 (antibody, V domains shown, Fully human mAb from XenoMouse (IgG2 or IgG4 strain); hybridoma supernatant) VH: QLQLQESGPGLVKPSETLSLTCTVSGGSISSRSDYWGWIRQPPGKGLEWIGTIYYSGSTFYNPSLKSRVTISVDTSKNQFSLKLSSVTAADTAVYYCARQQLVLYYFDYWGQGTLVTVSS VL: not shown | 58% | 62% | 48% | 63% | 63% | 20100 RLU | 9710 RLU | 24 | 0.166 OD450 | 3.24 OD450 | 2.03 OD450

Source: patent US20100260765A1 (AstraZeneca / MedImmune, published 2010)
